Experimental findings from patent publication US20140228541A1 are described below.

In assay [1] the target is carcinoembryonic antigen (CEA) (UniProt P06731). The experiment in a line: SEC-HPLC shift; the labeled Fab in serum without CEA eluted at 10.331 min. In general terms: In gel filtration, larger molecules generally elute earlier.
For assay [2], the target named is somatostatin receptors on AR42J cells (rat). Put plainly: competition with ^111In(DTPA-octreotide) on AR42J cells, apparent IC50.
Assay [3] concerns the target binding target of the bombesin analog IMP493 (not named in the paragraph). Put plainly: assay not described.
Assay [4] deals with gastrin-releasing peptide receptor on PC-3 cells (UniProt P30550). Put plainly: competition with ^125I-BBN on PC-3 cells, repeat experiment.
Sequence of gastrin-releasing peptide receptor on PC-3 cells (P30550 whole entry): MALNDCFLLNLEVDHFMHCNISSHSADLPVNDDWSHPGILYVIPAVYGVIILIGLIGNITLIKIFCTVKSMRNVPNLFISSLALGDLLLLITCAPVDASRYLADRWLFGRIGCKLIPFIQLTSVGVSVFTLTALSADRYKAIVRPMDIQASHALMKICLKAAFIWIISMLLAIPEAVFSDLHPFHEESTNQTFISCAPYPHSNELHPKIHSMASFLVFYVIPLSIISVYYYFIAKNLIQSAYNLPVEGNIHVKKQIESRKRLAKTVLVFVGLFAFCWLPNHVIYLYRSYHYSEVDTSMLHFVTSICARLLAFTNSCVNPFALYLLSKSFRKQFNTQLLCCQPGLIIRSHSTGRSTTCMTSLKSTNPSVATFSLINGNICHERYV

Sequence of somatostatin receptors on AR42J cells (rat) (P30680 whole entry): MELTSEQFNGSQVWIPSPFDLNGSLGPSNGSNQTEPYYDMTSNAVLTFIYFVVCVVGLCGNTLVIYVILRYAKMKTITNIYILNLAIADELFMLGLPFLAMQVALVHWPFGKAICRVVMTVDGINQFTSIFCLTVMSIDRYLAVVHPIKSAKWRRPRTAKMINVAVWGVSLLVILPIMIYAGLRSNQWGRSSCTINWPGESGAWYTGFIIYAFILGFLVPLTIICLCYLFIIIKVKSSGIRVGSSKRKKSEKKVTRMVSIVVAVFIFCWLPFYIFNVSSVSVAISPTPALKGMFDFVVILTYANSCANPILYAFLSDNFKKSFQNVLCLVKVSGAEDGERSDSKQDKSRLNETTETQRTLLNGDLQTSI
Sequence of carcinoembryonic antigen (CEA) (P06731 35-685 limits assumed): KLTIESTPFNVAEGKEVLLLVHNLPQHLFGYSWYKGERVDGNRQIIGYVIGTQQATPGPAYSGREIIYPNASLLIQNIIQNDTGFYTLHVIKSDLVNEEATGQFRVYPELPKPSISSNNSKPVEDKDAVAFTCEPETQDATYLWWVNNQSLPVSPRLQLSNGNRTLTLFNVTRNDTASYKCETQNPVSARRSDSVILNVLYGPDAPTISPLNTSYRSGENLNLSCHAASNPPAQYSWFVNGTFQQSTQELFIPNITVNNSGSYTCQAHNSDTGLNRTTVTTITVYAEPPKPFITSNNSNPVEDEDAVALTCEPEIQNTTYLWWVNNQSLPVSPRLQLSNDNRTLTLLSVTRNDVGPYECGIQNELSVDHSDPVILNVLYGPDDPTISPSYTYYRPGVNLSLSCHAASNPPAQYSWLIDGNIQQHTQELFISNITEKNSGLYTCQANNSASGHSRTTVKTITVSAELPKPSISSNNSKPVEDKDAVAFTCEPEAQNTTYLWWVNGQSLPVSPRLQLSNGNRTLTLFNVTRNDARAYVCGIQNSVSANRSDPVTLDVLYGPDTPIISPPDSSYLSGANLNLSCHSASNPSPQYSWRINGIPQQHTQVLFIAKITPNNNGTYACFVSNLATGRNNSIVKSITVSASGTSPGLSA

Turning to Al^18F(NODA-MPAES)-hMN-14 Fab′, the SEC-HPLC retention time of major product after adding CEA in assay [1] was 7.21 min.
Turning to “Al^19F(IMP466) (Al^19F complex of NOTA-D-Phe-Cys-Phe-D-Trp-Lys-Thr-Cys-Throl) (peptide)”, the half-inhibitory concentration (IC50) in assay [2] came to 3.6 nM.
For the substance ^69Ga(IMP466) (peptide), the half-maximal inhibitory concentration (IC50) in assay [2] came to 13 nM.
Consider ^125I-Bombesin (Perkin-Elmer) (peptide), for which, in assay [3], the EC50 came out at 59 nM.
The substance “commercially available BBN peptide (positive control)” registered an IC50 in assay [4] of 24.4 nM.

The term IC50 denotes the midpoint of a concentration-inhibition curve. As usually defined, the EC50 is the concentration giving half of the maximal effect.
